Test results from publication doi:10.1101/699132 (bioRxiv, 2020).

Molecular target: the molecule itself
Experiment: non-reducing SDS-PAGE and immunoblot

B1: PRDX4, murine islets (enzyme, mouse (endogenous in murine islets), UniProt O08807 41-274, looked up)
chain: LESDERFRTRENECHFYAGGQVYPGEASRVSVADHSLHLSKAKISKPAPYWEGTAVINGEFKELKLTDYRGKYLVFFFYPLDFTFVCPTEIIAFGDRIEEFKSINTEVVACSVDSQFTHLAWINTPRRQGGLGPIRIPLLSDLNHQISKDYGVYLEDSGHTLRGLFIIDDKGVLRQITLNDLPVGRSVDETLRLVQAFQYTDKHGEVCPAGWKPGSETIIPDPAGKLKYFDKLN
In the case of B1, the “stoichiometry N” value is reported as 2.
